The results in this text go back to the supplement of paper PMC10567573.

This series can be described thus: protein stability index of a GFP-peptide fusion (GPS, HEK-293T) (PSI 1-6); higher = more stable.
[1] abbreviates: treatment: DMSO, c terminus: a fixed tail appended.
[2] abbreviates: treatment: MLN4924 1 uM, 8 h, c terminus: a fixed tail appended.

± gives the standard deviation.
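Further: 24-mer peptide tiles fused after GFP, lentivirally expressed, FACS-sorted into six equal bins by GFP/DsRed ratio, decoded by Illumina sequencing, PSI is the read-weighted mean bin number.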

For AAALKCQLCEKAPKEATVMCEQCD [TRIM9], the protein stability index by setting is: under setting [1], 5.33 ± 0.22; under setting [2], 5.4 ± 0.15. As to AAETAAQGPTPRYFTWDEVAQRSG [FADS1], the protein stability index was found to be 4.23 ± 0.23 under setting [1] and 4.11 ± 0.27 under setting [2].

AAETRGAVEGAARTTPSRREITGV [PALM] gave a protein stability index under setting [1] of 4.86 ± 0.36 and a protein stability index under setting [2] of 5.07 ± 0.18. AAQDRPMSPGDCPPETTETPKCSS [YJU2B]: the protein stability index is 5.54 ± 0.24 under setting [1] and 5.3 ± 0.34 under setting [2]. The matching figures for AARVGLLQYSTQVHTEFTLRNFNS [MATN2]: 2.37 ± 0.19 and 2.19 ± 0.28. In the case of ACAQLATGAACRLVEAVLSGEVLN [HDAC6], the protein stability index turned out to be 2.44 ± 0.53 under setting [1] and 2.65 ± 0.4 under setting [2].

ACDLQPCPTEPPDDSCQDQPGTNC [ADAMTSL2] came in with a protein stability index under setting [1] of 5.49 ± 0.34 and a protein stability index under setting [2] of 5.51 ± 0.39. With ACLVSCFQQLMVETCSCGYYLHPL [SCNN1D], the protein stability index is 2.91 ± 0.17 under setting [1] and 3.21 ± 0.19 under setting [2]. Regarding ADEGSRNSRFQMLFTSFQEPPCEG [NETO1], the protein stability index under setting [1] was found to be 3.98 ± 0.094 and the protein stability index under setting [2] stood at 4.17 ± 0.22. Take ADISMIGQFGVGFYSAYLVAEKVV [HSP90AB1]: the protein stability index under setting [2] is 2.86 ± 0.44. As for ADWLGLKDEDLDLFPASPTREAHR [FBF1], the protein stability index is 4.77 ± 0.21 under setting [1] and 4.61 ± 0.12 under setting [2]. For the sequence AEEIRIKGKYNISSEDYRQLELVI [KCNK9], the protein stability index is, setting by setting: under setting [1], 2.25 ± 0.2; under setting [2], 2.05 ± 0.38. The matching figures for AEEWYKSKYADLSDAANRNHEALR [PRPH]: 4.27 ± 0.21 and 4.43 ± 0.35. For the sequence AELLKKQEELNRKAEELDRREREL [SCAMP3], the protein stability index came to 5.43 ± 0.26 under setting [1] and 5.44 ± 0.33 under setting [2]. Turning to AEQRGDNALKDARAKLDELEGALH [KRT71], the protein stability index by setting is: under setting [1], 5.16 ± 0.2; under setting [2], 5.37 ± 0.29.

Regarding AFEAARDLDACALVRGHRRRLLRR [ZSWIM9], the protein stability index under setting [1] was 4.5 ± 0.2 and the protein stability index under setting [2] was 4.45 ± 0.21. Regarding AGARKIYAVEASTMAQHAEVLVKS [CARM1], the protein stability index amounted to 3.79 ± 0.39 under setting [1] and 4.07 ± 0.58 under setting [2].

AGFDAARGDPLGGCQVSPEGYAHL [HDAC6]: the protein stability index is, setting by setting: under setting [1], 3.75 ± 0.26; under setting [2], 3.78 ± 0.2. The corresponding values for AGGFSIRNQKGEQVFRLAFRSGAL [MYORG] are 1.77 ± 0.2 and 2.28 ± 0.39. The corresponding values for AGIMLLALVCLLSCLLPSSEAKLY [SPACA3] are 2.94 ± 0.12 and 3.25 ± 0.48. Consider AGLASGLLNQQSLKRSANQMGVSA [MED27], for which the protein stability index is 3.62 ± 0.06 under setting [1] and 3.69 ± 0.096 under setting [2]. As for AGTGASRSSHSSDSGGSDVDLDPT [ELF3], the protein stability index worked out at 5.59 ± 0.23 under setting [1] and 5.51 ± 0.22 under setting [2]. The matching figures for AHKMKFSDLFSLAEEYEDSSTKPP [INTS3]: 4.22 ± 0.17 and 4.17 ± 0.1. For the sequence AIDRNYVPGKSLAVSCPGWSAVA [SNX12], the protein stability index was 2.73 ± 0.33 (treatment: DMSO, c terminus: native) and 1.97 ± 0.31 (treatment: MLN4924 1 uM, 8 h, c terminus: native). Regarding AIVQQVPAPSRMQMPQGNPLLLSH [SNX8], the protein stability index was found to be 2.72 ± 0.38 under setting [1] and 2.7 ± 0.31 under setting [2]. As for AKADTTSTVTPVPGQEKGSALEGR [EHMT1], the protein stability index runs as follows: under setting [1], 5.3 ± 0.24; under setting [2], 5.38 ± 0.12.

AKGSLGTQIGFADLMGVLTKGVRE [FEM1A]: the protein stability index is, setting by setting: under setting [1], 2.49 ± 0.19; under setting [2], 2.4 ± 0.3.

As for AKGWGPCYSRQFITSCPCWLEILL [SMAD6], the protein stability index is, setting by setting: under setting [1], 2.69 ± 0.29; under setting [2], 2.8 ± 0.42. Sequence AKHLIASMLSKNPEDRPSLDDIIR [PLK2] came in with a protein stability index under setting [1] of 2.61 ± 0.38 and a protein stability index under setting [2] of 2.79 ± 0.24. As for AKQQKFIKAVTHQVKFGQQNPRQV [ZC3H15], the protein stability index came to 3.19 ± 0.22 under setting [1] and 3.4 ± 0.3 under setting [2]. On to ALCLEVRPTYFEMKNEKLLSKASE [RNF180], for which the protein stability index was found to be 3.51 ± 0.21 under setting [1] and 3.67 ± 0.4 under setting [2]. On to ALEKLRSEMEEEKRQAVNKAVANM [ZMYND11], for which the protein stability index by setting is: under setting [1], 4.42 ± 0.38; under setting [2], 4.34 ± 0.36. Consider ALGDIREVQKLVESGVDVNSQNEV [ANKRD40], for which the protein stability index under setting [1] came out at 5.28 ± 0.3 and the protein stability index under setting [2] stood at 5.24 ± 0.29. As for ALLPSLSHCSQLTTLSFYGNSISI [PRAME], the protein stability index under setting [1] worked out at 3.14 ± 0.66 and the protein stability index under setting [2] came to 3.14 ± 0.35.

For the sequence ALPVPVIVSNFNYFYHRETENEEQ [KCNA4], the protein stability index is 3.54 ± 0.15 under setting [1] and 3.57 ± 0.17 under setting [2]. With ALTGHLRTHSVIKEETNHSEMAED [IKZF1], the protein stability index stood at 5.38 ± 0.23 under setting [1] and 5.13 ± 0.31 under setting [2].

As to ANKYLVEDVLLLNFEEMRALLDSL [KLHL14], the protein stability index is, setting by setting: under setting [1], 2.34 ± 0.21; under setting [2], 2.37 ± 0.19. As for APDRATAVATASRLGPYVLLEPEE [TRIB3], the protein stability index stood at 5.04 ± 0.31 under setting [1] and 5.04 ± 0.24 under setting [2]. The matching figures for APMDAPRYQHGIAVIGNFLYVVGG [KLHL13]: 2.18 ± 0.36 and 2.25 ± 0.25. In turn, APSKKAAKDPGKGELPNHPKPAGG [FBF1] had a protein stability index under setting [1] of 5.1 ± 0.43 and a protein stability index under setting [2] of 5.53 ± 0.24. The sequence AQDDDRLREERKKAKKNKDKYVGV [CLINT1] displayed a protein stability index under setting [1] of 5.27 ± 0.17 and a protein stability index under setting [2] of 5.48 ± 0.38. Sequence AQQFALMAPLLFNGCRSGEIFAID [DCAF4] returned a protein stability index under setting [1] of 2.6 ± 0.72 and a protein stability index under setting [2] of 2.64 ± 0.34. The corresponding values for AQSLPGPCAAAREGRLERRECGLA [IRX6] are 4.42 ± 0.2 and 4.53 ± 0.38. In the case of ASADRTVIVWDGDTTRQVQRISCF [WDR41], the protein stability index under setting [1] stood at 2.25 ± 0.27 and the protein stability index under setting [2] is 2.58 ± 0.26. On to ASLTIPLVPETEDDRKLAALLKFH [YJU2B], for which the protein stability index was 3.05 ± 0.24 under setting [1] and 3.41 ± 0.24 under setting [2]. On to ASPRRLSNVSSSGSINLLESPQLA [MAP2], for which the protein stability index is, setting by setting: under setting [1], 4.2 ± 0.2; under setting [2], 4.12 ± 0.15.

On to ASREENQAGPEATTSDPQDLDMKK [PALM], for which the protein stability index is 5.53 ± 0.46 under setting [1] and 5.43 ± 0.42 under setting [2]. For ATITSRGSSLSGSLCSLLESQSTS [LURAP1L], the protein stability index turned out to be 3.49 ± 0.28 under setting [1] and 3.6 ± 0.32 under setting [2]. In the case of ATLTTTSATSKLIHPDEDISLEER [ZNF207], the protein stability index reads like this: under setting [1], 5.23 ± 0.064; under setting [2], 5.35 ± 0.27.

AVADSIPQVLADLGSFESPANSET [PCDHGA10] displayed a protein stability index under setting [1] of 5.07 ± 0.54 and a protein stability index under setting [2] of 5.35 ± 0.2. The sequence AVFAVSAVVHEYALAVCLSFFYPV [SOAT1] displayed a protein stability index under setting [1] of 3.23 ± 0.37 and a protein stability index under setting [2] of 3.07 ± 0.23. AVGNSSGSGQNEESPRKRKKATEA [FBXO28] had a protein stability index under setting [1] of 4.95 ± 0.34 and a protein stability index under setting [2] of 5.29 ± 0.27. As for AVKLYNSGDFRSSTEDMERALSEY [P3H4], the protein stability index was 4.57 ± 0.4 under setting [1] and 4.14 ± 0.26 under setting [2]. The corresponding values for AVLEYLYTGMFTSSPDLDDMKLII [RHOBTB2] are 2.68 ± 0.6 and 2.53 ± 0.3. The corresponding values for AVPEDLADRLVRVHGDPAVWWVSQ [FUT8] are 2.61 ± 0.29 and 2.65 ± 0.039. Consider AVSDGRHMFVWGGYKSNQVRGLYD [KLHDC2], for which the protein stability index by setting is: under setting [1], 2.28 ± 0.58; under setting [2], 2.27 ± 0.51. Regarding AVTDLLGRRQRKSEKRRDPPNGPN [WASL], the protein stability index runs as follows: under setting [1], 4.06 ± 0.14; under setting [2], 4.31 ± 0.29. Regarding AVVALTQDQPSEAATGGATLAQTI [HDAC6], the protein stability index is, setting by setting: under setting [1], 4.27 ± 0.33; under setting [2], 4.38 ± 0.24. In the case of AVVAVDRQAIFPDTWTLTEEHGLQ [PXN], the protein stability index under setting [1] was 3.35 ± 0.51 and the protein stability index under setting [2] is 3.35 ± 0.34.

AWNSPFYNCGEESLQSCMHFQPNS [NANOGP8]: the protein stability index is, setting by setting: under setting [1], 2.41 ± 0.13; under setting [2], 2.43 ± 0.41. Consider AYQEVFKPENISLRNKLRELCVKL [SMG5], for which the protein stability index under setting [1] was 2.24 ± 0.23 and the protein stability index under setting [2] was determined as 2.17 ± 0.35.

For the sequence CFITLTTIGFGDYVALQTKGALQK [KCNK9], the protein stability index under setting [1] stood at 2.97 ± 0.63 and the protein stability index under setting [2] came to 2.67 ± 0.59. With CIYSEVMEALDLQPGLSFLNLGSG [PCMTD2], the protein stability index is, setting by setting: under setting [1], 2.29 ± 0.34; under setting [2], 2.33 ± 0.44. The matching figures for CMVEIVQKYDPDKDEWHKVFDLPE [KLHL13]: 2.52 ± 0.27 and 2.59 ± 0.24.

With CPPLPAGVSFHIDSAELEPGSQTA [FBXO34], the protein stability index came to 5.03 ± 0.4 under setting [1] and 5.09 ± 0.2 under setting [2].

For the sequence CQDCGRAFNQNSSLGRHKRTHTGE [ZNF8], the protein stability index is, setting by setting: under setting [1], 3.73 ± 0.44; under setting [2], 3.42 ± 0.17. For the sequence CRRCYDWIHRPGCRCKNSNTVYCK [SPRY1], the protein stability index came out at 2.82 ± 0.089 under setting [1] and 3.05 ± 0.13 under setting [2].

Regarding CVPPSEFSEPSFITESYQTLHPIS [ETS1], the protein stability index by setting is: under setting [1], 2.98 ± 0.19; under setting [2], 3.08 ± 0.16. DAENQKNWLDPAKEIKKQVRSGAW [EPB41L3] came in with a protein stability index under setting [1] of 3.55 ± 0.5. DCRYPYEYEGGHIKTAVNLPLERD [CDC25B] displayed a protein stability index under setting [1] of 4.13 ± 0.23 and a protein stability index under setting [2] of 4.14 ± 0.63. Turning to DDSSSESGSGNGSSTLNPSTSSST [NOL4L], the protein stability index stood at 5.57 ± 0.31 under setting [1] and 5.49 ± 0.2 under setting [2].

Turning to DEAGGGAEGDSWEEEGFGSSSPVK [WEE1], the protein stability index was 5.3 ± 0.068 under setting [1] and 5.35 ± 0.26 under setting [2]. The corresponding values for DEDAGLPRPVQLDETHPYTVTSVS [NEK8] are 5.12 ± 0.19 and 5.23 ± 0.18.
